Measurements as given in US20200062828A1 (PANASONIC INTELLECTUAL PROPERTY MANAGEMENT, published 2020).

T1: VLP noro antigen derived from the norovirus GII/4, composed by associating 90 dimers of VP1 each including … (norovirus GII/4, UniProt P54635 1-539)
T1 construct: Virus-like particle; also called solid phase VLP
T1 chain: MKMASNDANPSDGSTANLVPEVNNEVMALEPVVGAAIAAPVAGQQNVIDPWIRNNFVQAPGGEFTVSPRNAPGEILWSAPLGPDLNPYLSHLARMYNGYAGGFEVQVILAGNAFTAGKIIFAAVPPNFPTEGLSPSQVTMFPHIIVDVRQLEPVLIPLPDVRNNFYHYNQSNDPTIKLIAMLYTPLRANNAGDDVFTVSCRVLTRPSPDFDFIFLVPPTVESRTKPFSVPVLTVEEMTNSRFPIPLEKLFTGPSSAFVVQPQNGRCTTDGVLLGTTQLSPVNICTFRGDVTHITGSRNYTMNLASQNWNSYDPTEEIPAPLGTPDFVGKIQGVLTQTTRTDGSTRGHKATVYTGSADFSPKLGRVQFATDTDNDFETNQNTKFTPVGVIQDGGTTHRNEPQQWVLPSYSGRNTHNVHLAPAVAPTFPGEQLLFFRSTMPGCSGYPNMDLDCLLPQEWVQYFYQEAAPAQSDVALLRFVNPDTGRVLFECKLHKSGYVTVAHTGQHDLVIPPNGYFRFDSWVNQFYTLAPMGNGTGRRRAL

T2: noro antigen (recombinant of the p-domain protein of the GII/4 norovirus (NSW-2012)) (GII/4 norovirus (NSW-2012), UniProt P54635 1-539)
T2 construct: Viral capsid protein antigen; also called antigen of the norovirus; recombinant p-domain protein
T2 chain: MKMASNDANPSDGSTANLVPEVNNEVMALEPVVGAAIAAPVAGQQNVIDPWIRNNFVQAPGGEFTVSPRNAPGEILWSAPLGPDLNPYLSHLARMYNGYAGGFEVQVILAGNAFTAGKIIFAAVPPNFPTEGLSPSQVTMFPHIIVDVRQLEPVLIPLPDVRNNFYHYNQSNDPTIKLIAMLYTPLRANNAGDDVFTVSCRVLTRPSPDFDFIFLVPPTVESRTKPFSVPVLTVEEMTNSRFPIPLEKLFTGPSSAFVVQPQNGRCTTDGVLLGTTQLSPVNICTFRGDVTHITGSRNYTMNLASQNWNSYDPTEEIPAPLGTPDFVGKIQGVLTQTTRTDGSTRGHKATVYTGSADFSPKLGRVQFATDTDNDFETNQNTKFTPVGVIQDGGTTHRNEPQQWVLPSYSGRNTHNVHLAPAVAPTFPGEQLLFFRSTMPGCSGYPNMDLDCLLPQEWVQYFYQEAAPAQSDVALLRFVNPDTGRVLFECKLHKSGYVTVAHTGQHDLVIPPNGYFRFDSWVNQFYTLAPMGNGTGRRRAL

B1: dimer antibody having two of the structural domains each having the amino acid sequence represented by SEQ ID NO: 38 (SEQ ID NO: 97) (VHH)
chain: QVQLVESGGGVVQTGGSLRLSCAASGSTFSIGAMGWYRQAPGKQRELVATVNRASRTIYADSVRGRFTISRDNAKNLVYLQMNNLKPEDTAVYYCNVIATSASGRGVTSTSWGQGSQVTVSSGGGGSGGGASGGGGSQVQLVESGGGVVQTGGSLRLSCAASGSTFSIGAMGWYRQAPGKQRELVATVNRASRTIYADSVRGRFTISRDNAKNLVYLQMNNLKPEDTAVYYCNVIATSASGRGVTSTSWGQGSQVTVSSEPKTPKPQSASAA
notes: also called Divalent 97
B2: VHH antibody including the amino acid sequence represented by SEQ ID NO: 43 (VHH)
VHH: QLQLVESGGGLVQPGGSLRLSCAASGFTLDYYAIGWFRQAPGNEREFVAAISWNGGSTYYADSVKGRFTISRDNAKETVYLQMNSLKPEDTGVYYCNYRPQFGLGYNYWGQGTQVTVSS
notes: also called anti-noro antibody; not shown: C-terminal 3xFlag tag and His tag from the modified pET22b(+) vector
B3: VHH antibody including the amino acid sequence represented by SEQ ID NO: 38 (VHH)
VHH: QVQLVESGGGVVQTGGSLRLSCAASGSTFSIGAMGWYRQAPGKQRELVATVNRASRTIYADSVRGRFTISRDNAKNLVYLQMNNLKPEDTAVYYCNVIATSASGRGVTSTSWGQGSQVTVSS
notes: Alpaca VHH expressed in E. coli; also called monomer antibody; not shown: C-terminal 3xFlag tag and His tag from the modified pET22b(+) vector
B4: VHH antibody including the amino acid sequence represented by SEQ ID NO: 39 (VHH)
VHH: QLQLVESGGGLVQAGGSLRLSCVASGFPFASSAMAWFRQAPGKEREFVASISYRGITTYYAQPVKGRFTMSRDNAKNTVYLQMNSLKPEDTAVYYCYAKSIWGNAYWGQGTQVTVSP
notes: also called Monovalent 65; not shown: C-terminal 3xFlag tag and His tag from the modified pET22b(+) vector
B5: VHH antibody including the amino acid sequence represented by SEQ ID NO: 40 (VHH)
VHH: QLQLVEPGGGVVQPGGSLRLSCLASGSDFSLGAMGWYRQAPGKQRELVAIINRASWTRYADSVKGRFTISRDNSKNLVFLQMNNLKPDDTAVYYCNAIATSASGRGVTSTSWGQGSQVTVSS
notes: not shown: C-terminal 3xFlag tag and His tag from the modified pET22b(+) vector
B6: dimer antibody (SEQ ID NO: 98) in which the structure domain of SEQ ID NO: 38 and the structure domain of SEQ ID NO: 39 are connected from N to C via a linker (VHH)
chain: QVQLVESGGGVVQTGGSLRLSCAASGSTFSIGAMGWYRQAPGKQRELVATVNRASRTIYADSVRGRFTISRDNAKNLVYLQMNNLKPEDTAVYYCNVIATSASGRGVTSTSWGQGSQVTVSSGGGGSGGGASGGGGSQLQLVESGGGLVQAGGSLRLSCVASGFPFASSAMAWFRQAPGKEREFVASISYRGITTYYAQPVKGRFTMSRDNAKNTVYLQMNSLKPEDTAVYYCYAKSIWGNAYWGQGTQVTVSPEPKTPKPQSASAA
notes: Single-chain tandem heterodimer of two VHH domains (38 then 39); also called Divalent 98
B7: VHH antibody including the amino acid sequence represented by SEQ ID NO: 41 (VHH)
VHH: EVQLVESGGGLVQAGGSLRLSCAVSGRTSSRYVMGWVRQAPGKEREFLAAISWSAGYTFYRDSVKGRFTISRDNAKNTVYLQMNSLKPEDTAVYYCNADENGLGRKRGFGSWGQGTQVTVSS
notes: as for B2
B8: VHH antibody including the amino acid sequence represented by SEQ ID NO: 42 (VHH)
VHH: ELQLVESGGGAVHTGGSLRLSCAVSGRTDIRYAMGWFRQAPGREREFVAAISWNGDDTFYADSVKGRFTISRDNAKNAVSLQMDSLRPEDTAVYYCNARNSYAAFARAYWGQGTQVTVSS
notes: as for B2
B9: dimer antibody (SEQ ID NO: 99) in which the structure domain of SEQ ID NO: 39 and the structure domain of SEQ ID NO: 38 are connected from N to C via a linker (VHH)
chain: QLQLVESGGGLVQAGGSLRLSCVASGFPFASSAMAWFRQAPGKEREFVASISYRGITTYYAQPVKGRFTMSRDNAKNTVYLQMNSLKPEDTAVYYCYAKSIWGNAYWGQGTQVTVSPGGGGSGGGASGGGGSQVQLVESGGGVVQTGGSLRLSCAASGSTFSIGAMGWYRQAPGKQRELVATVNRASRTIYADSVRGRFTISRDNAKNLVYLQMNNLKPEDTAVYYCNVIATSASGRGVTSTSWGQGSQVTVSSEPKTPKPQSASAA
notes: Single-chain tandem heterodimer of two VHH domains (39 then 38); also called Divalent 99

Key:
[1] = molecular target: T1, VLP noro antigen derived from the …; assay: SPR (T200, CM3), VLP noro antigen immobilized, antibody as analyte
[2] = molecular target: T2, noro antigen (recombinant of the …); assay: SPR (T200), VHH immobilized, noro antigen as analyte added serially
[3] = molecular target: T2, noro antigen (recombinant of the …); assay: SPR (T200, CM5), noro antigen immobilized, VHH as analyte, separate concentrations
[4] = molecular target: T2, noro antigen (recombinant of the …); assay: SPR (T200, CM5), noro antigen immobilized, VHH as analyte added serially

Row | Binder | Kd [1] [nM] | koff [1] [s⁻¹] | kon [1] [M⁻¹ s⁻¹] | Kd [2] [nM] | Kd [3] [nM] | Kd [4] [nM]
1 | B1 | 0.13 | 0.000302 | 2.32e+06 |  |  | 
2 | B2 |  |  |  | 10.3 | 5.45 | 
3 | B3 | 149 | 0.0214 | 144000 | 4.15 |  | 1.15
4 | B4 | 54.8 |  |  | 15.9 |  | 15.8
5 | B5 |  |  |  | 9.57 |  | 9.5
6 | B6 | 0.485 | 0.00198 | 4.08e+06 |  |  | 
7 | B7 |  |  |  | 4.98 | 81.6 | 
8 | B8 |  |  |  | 13.1 | 63.8 | 
9 | B9 | 0.00947 | 0.000356 | 3.75e+07 |  |  | 
